From the DeepSol protein solubility set

Experiment: soluble on expression in E. coli; label from the status in PepcDB or PDB records

Row | Sequence | soluble on expression in E. coli
1 | HENPEGIIRIYASTTPGEHILPSIIKEYKSSYKNVDFEITITDSERCFKALDEGLADIAAVGYLKNKNYEYTIIGKDRLVLIVPPNHPLAEKGTAKLEDILKEDYIDREEGSGTREAFIKALNDKGYSIMDLNVVMRLGSHSAVI | not soluble
2 | QSTIKIVLIEDTKTLDEVVVIGYGTQKKSDVSGSVTSVSGDKLSKIPTANAEMALQGMAPGLSVNFGSGAAGSSATLQVRGVTSWKDDDGENSESNGPLVIIDGVPGNMSYLNPEDIKSISVLKDAATAAIYGSRSAAGVILIETHRGT | not soluble
3 | MGSDKIHHHHHHMSYSAKVLWGEGLFLRPQHFQRQDAYHEARLFESIQAIQPYNWGVRSVRFDRDALGSNVLRASELSLVFPDGALYSAPQADELPPPIALDTLPEGINEFTFYLALHPLRETGSNYADDRDAGFVSRFVSEQASVADHFTDAAEADITFLKTNVKLIAHSEPRDQLLSIPLVRVRRTATSGFEIDDGFVPPCLAIEASPILHQRLRQLIDALQAKVNALYGFHREPTKNIIEFRSGDIASFWLLHTASAAFAALAHLHQHSALHPERLFQELLRLAGQLMTFSKGYVLADLPAYRHDDPGPGFARLDSILRELLETVISTRYFAITLEEVRPSFHVGRLDSGKIDDKTAFYLAVSADMPSVELVDAVPARFKVGAPDDVDKLVLSAMPGVRLAYTPQVPPAIPVRPGACYFALDARSPLYERMLQAQSAMIYAPSGINDLKFELIAVTS | not soluble
4 | MGSDKIHHHHHHAGTQTAQTQALDSDGIPTGGEWITMFDGKTLNGWRGYCRQDVPLGWVVEDGSITYKGSDNKADTGFGDLIYDKKFKNFVFEIEWKIDKAGNSGIFYTAQEIEGTPIYYSSPEYQLLDNENMPDAWEGCDGNRQAGAVYDMIMPDPQPVKPYGNWNKTRIVVYNQRVIHYMNDVKILEFQFGTPVWRALVDHSKFSKFSTSPEKCPEAYDLMLQCGKQPGYIGMQDHGYGVCFRNIRIKEL | not soluble
5 | FEQEGRDVALDYRWMPYKRISTNLKKALIASEDARFAGHGGFDWGGIQNAIRRNRNSGKVKAGGSTISQQLAKNLFLNESRSYIRKGEEAAITAMMEAVTDKDRIFELYLNSIEWHYGVFGAEAASRYFYQIPAAKLTKQQAAKLTARVPAPLYYADHPKSKRLRNKTNIVLKRMGSAELPESDTD | not soluble
6 | MAHHHHHHERASLITTGPYGHQSGAVYVGNYKVVNRHLATHVDWQNCVWEDYNRDLLVSTTTAHGCDTIARCQCTTGVYFCASKSKHYPVSFEGPGLVEVQESEYYPKRYQSHVLLATGFSEPGDAGGILRCEHGVIGLVTMGGEGVVGFADVRDLLWLEDDAMEQ | soluble
7 | MNEILKTEDEVVRWSVKKINDDTTLIEFELKRDLVPEDLKKINPPDAVKNKFANTFIVLSGRGPIWLYGFLIHFYHPTKGIGVFDPRLGGAVVVSSHSPNKKVGDVIKWEG | not soluble
8 | MSLRVMIVDDHGTNRELCRFILAHIASHIDTFEDGQQAIDAMREMEILPDVILLDVMMPIKDGFVTAKEIRQAFVKHHIPIIFLTVLDDRDSFEKCLALGDDFILKPVERSVLIAKVQAHYRIVKMHNEVMEQRDELRHFREQVQYDYAISESIFTNLMEEMCHQVEHIFGIHYISTPSTIFNGDLIVVANRPHGGVYVMIADATGHGLPAAISTIPATRTFFSTAQKGLSLGEMVIELNHSLERFLPVGMMLAASVFEVRANGFEISWWGGGLPEAYLLDHHGNIVSRLISNHMPLGVLPSNEFEADVQHFKLEPNQKLVCYTDGIIEAMNEQGEYFGQERLEHVLTKAYSEALIPTLYDAVKKFSNRGKGDDLSILTMTFPITNSNSSDKALPKVVLSCIPLQTELHFPADVLRKISLMNEVRRFLTGIVSGGEDLDLLCSVLSELFANAIEHGLLELDSSLKETPDGFFEFYQLRDKRLKTLPEYHWLILKVNYQPDKQRIEIDLEHSGKGFDCQALKDASNQKSYGRGILLATQLCESLEYSNQGRRVTAVYSFARKDTLHYSLPSEGHHHHHH | soluble
9 | MGSDKIHHHHHHQPTGTMTTDSKLTSKESALALTNSAYLKNTVFNKMTPGWGCNTILLLEYMTGKATSENSQSNYKDFQDLLVSDRSLYIEDWWQDCYAGIANCNLALQKLGEFENLDASLVNGYMAEVKFMRALYYFYLVRIFGDVPKITTVQSELGELQVSRAPVKEIYDEIIIPDLLEAEQSDLAFSDHTGRVSMGAVKALLADVYLTYAGYPLQGGKSYYAESAKRSLEVIKSNEYTLFTDYESLRLPSQNNKGEFIYQVQFSLNKRHNESVRIFLPSRSGISAYDLEYGSLIPTKEFVESFEKGDKRTEEKQYFFTNYKGHPSKFSPGAAELEFMDLNGYYIYKFFDQVAVDNTAKSDLNWSVYRYTDVLLMYAEAQVNADGTPNQQSIDIVNQIRGRAGLAPFKQTNASAFLEEVWDQRYFDLCYENKMWFDMLRTRKIRDDKSGEYVDFIGYKTNWGKVYTETQLLFPIPLSERQANPNLTQNQGY | not soluble
10 | MGSDKIHHHHHHMNKDFTFTIKSSCFDENYNPSENTRITTNFANLARGKSRQENLRNTLVMMDNRFNTLAYWDNPKANRYSVELEIISVEIDIEGNGDTFPAIEILKTNIVDKKTNERIEGIVGNNFSSYVRDYDFSVLLPEHNKSHPGFSTPDNFGDLHGKLFKCFTNSKFYKDNFNKQPVICLSVSSKNTYHRTGNQHPVLGIEYQQNEPSLTDHYFERMGLQARYFMPANSVAPLAFYFSGDLLNDYTNLELISTISTMETFQKIYRPEIYNANSAAGQYYQPNLNNQDHSLTKIVYDRVERSQLAIEQGKFTEEHFIKPYKNILEQWSAHYAR | not soluble
11 | GPGSMSSKEELAALMASDGDFEKKISLLKKAVVTVTKQKKEVEARQTQLQGELSTATQQLAEAQRANAALQRKVKSLEAQQEQERSSGSAFGQNMLKGLSSIMGNSDSANRGGARGERGSAGDRLSLSPEDVERLISENEQLHRQIYAFKTKLEDVQHSSAKDTERLKSEVARLQRETQELRRSLEANTATGDRLRADYLTERALGDFCRHFFVATLLRPQQERESFLTGTTVEVRWPAKGPSSNSAAAAFSDSLPAVVSERVTLALQSAAGTVKTLLRGVSVLAVVLQEQLPSRERATVGDLECLRDRLSVFLEAHTAKKDSLMYLLEQLDSQLSAVQHADEEGGSAPVSADAFVEAQGNIVQLVLEWVGLLRTQLPLLVESCVAILPHGNSYTMYTAHVSAGTGDGAAEPRKTTTERGEFVEEVTRHGYATLASIEGSLTAMRMLVERSPTAYYRCYNNGNRGGALPEPPTTKETLNFTSSLEATQPPMDLSSLLALQQFWWEGCTSVRSLRASILALNSGLVNVAEACNKSEIRDALNYLCKCLEAIAAASEEMYGSPRLAPADADAAIAALVPDALAPRTPAHAPPSEASSWALRPRTAIATSSTLTAEGVRDTAYADKYEELLVALSAADRAAASYYTQMNYLYVEMAEKEDALQTALEAVAHLQQLIVAERAEAKHTRQALQSQISLLSTQLVEMAGAPAAQTPQ | not soluble
12 | MGSDKIHHHHHHMFFYNIHQPMKTLIENLTSDLLPNQIFQTGFSFLIILKGNSLLKLDSNVLIFIMSGTMKVSSAQQELATVRERHIFFWDKEDDYTCEMLSDSQVILFAFGDLIVHDLLTFRPFGAISDSSVSKDVGLKFAEPLNSFLQLLAQYMEMNLYDLSLYIAKQRELFYILNSVYNEQELAILFSSLTEQSSRFKEQILENYLSAKNVGELASLLGYGVTNFRAKFKEQFGVSVYRWLLNRKSQHIIYRITVYGDEFSQIIDDFGFSSPSHFNKFCRSQYGLTPCELRKKLKTNNNS | not soluble
13 | MGSDKIHHHHHHMTALDKTGLKILNFQQLLNQLTAKTQELFGDDVNTDQNSALGMYIRVISWLQNIVNQDLEAVYYSSFVDQAEGVSLDRLGSNYSVTRNPAQAATVMLDFTGTTGTVIPEETVYTTESGVEFEMVDTVTLDDSGKGSGEAVCTALDETGNVAPNTISVQGENIAGIESVTNPTQASGGTEIETDDAYRQRIHLSMESQPGPTYYGLYTGLYALPGVEQVQIVPNLTMETDSYGNPPKSLHFYVRGGREDDVAQAILDNIAAGIQTVGKIKEAVKDIGGHTHDVFFDTATVVPIYVNMSLKTSDDFNSETSPVEIVQAIKDYLSGLIMGDKVVFTKLYQAIYNISGVEYAQVTLGRDKSAMGMADIQLDQFETAVVANDSDVEVTVDDG | not soluble
